This is an account of results in the RNAGym collection of RNA variant scans (doi:10.1093/nar/gkz1192).

First the molecules themselves.
B1: CPEB3 Ribozyme (parent)
chain: UAACAGGGGGCCACAGCAGAAGCGUUCACGUCGCAGCCCCUGUCAGAUUCUGGUGAAUCUGCGAAUUCUGCUGUAUAUCUC

In this data set the parent is B1. Nature of the data set: self-cleavage, relative activity (ratio to wild type); higher = more cleavage; in vitro, sequencing. In outline: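 Relative activity compares each variant's cleaved/total read fraction with that of the unmutated ribozyme. To get these fractions, barcoded CPEB3 ribozyme libraries from rounds of error-prone PCR were transcribed with T7 RNA polymerase for 5 hours at 37°C and then given 15 min of DNase I treatment before EDTA was added. The RNAs were reverse transcribed with template switching and sequenced on Illumina, and DNA sequencing linked barcodes to variants. A minimum of 5 reads applied, and three batches were averaged.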
As for A35U C59A, the self-cleavage turned out to be 0.15.

For U43A U76A, the self-cleavage stood at 1.23.

For the variant U69C C71G, the self-cleavage came to 0.24.

Regarding A64U U74A, the self-cleavage came to 0.51.

With C40A U67C, the self-cleavage is 0.28.

In the case of C17A A47G, the self-cleavage was 0.28.

For the variant G8A C34U, the self-cleavage was 0.39.

For the variant G19U U67A, the self-cleavage came out at 0.13.

For A5U A75G, the self-cleavage was 0.95.

As for A20G G70C, the self-cleavage was determined as 0.19.

For A20G C81U, the self-cleavage came out at 1.09.

With A45C, the self-cleavage is 0.38.

Regarding C14U G52C, the self-cleavage came to 1.23.

Consider U41C G53C, for which the self-cleavage stood at 1.13.

For G36U A77U, the self-cleavage amounted to 0.19.

Regarding A15G A75G, the self-cleavage came to 0.92.

Consider G9A G63A, for which the self-cleavage came out at 0.12.

As to A15G U25G, the self-cleavage was 0.4.

As to C38G U43C, the self-cleavage came to 0.34.

With C40A A56U, the self-cleavage amounted to 0.2.

Regarding C32G A45C, the self-cleavage worked out at 0.12.

With C4G U72A, the self-cleavage stood at 1.13.

For C14A U69C, the self-cleavage was determined as 0.4.

On to A35U G46A, for which the self-cleavage is 0.16.

As for G16C A47G, the self-cleavage was 0.25.

A35U A65U: the self-cleavage turned out to be 0.26.

Turning to U51C U66C, the self-cleavage stood at 0.49.

Take U48C C50A: the self-cleavage was 0.25.

With G46A U49C, the self-cleavage turned out to be 0.11.

C32A A45G: the self-cleavage was 0.32.

Turning to A5C U41G, the self-cleavage came to 0.35.

Consider A15G C23U, for which the self-cleavage turned out to be 0.29.

For the variant A20U C34U, the self-cleavage turned out to be 0.34.

On to C17U A45G, for which the self-cleavage turned out to be 0.65.

U54C A77C: the self-cleavage came to 0.87.

With G46A A64U, the self-cleavage was determined as 0.08.

With A20G G24A, the self-cleavage is 0.29.

Turning to G8A U48G, the self-cleavage came out at 0.37.

In the case of C17G A75U, the self-cleavage worked out at 0.52.

Take A18U U31G: the self-cleavage came out at 0.17.

For the variant C23G C29U, the self-cleavage was found to be 0.36.

As to C39A A56U, the self-cleavage was found to be 0.09.

On to A13C C40A, for which the self-cleavage came out at 0.26.

As for G24A U58C, the self-cleavage is 0.12.

For G6U G7A, the self-cleavage was 0.33.

Turning to C29A U72G, the self-cleavage was determined as 0.18.

Regarding G7A U25A, the self-cleavage is 0.15.

For the variant U67C, the self-cleavage is 0.32.

As for U1A A35G, the self-cleavage came out at 1.25.

In the case of G24A G63C, the self-cleavage amounted to 0.16.

In the case of U43C U74C, the self-cleavage amounted to 0.89.

For U43C U74G, the self-cleavage worked out at 0.86.

As to C44A U80C, the self-cleavage turned out to be 0.41.

For G19U A57C, the self-cleavage stood at 0.19.

Consider G46A U74C, for which the self-cleavage is 0.48.

On to U60C A75C, for which the self-cleavage came out at 0.72.

For the variant C12A A47G, the self-cleavage was found to be 1.17.

Regarding A20U G52A, the self-cleavage is 0.41.

Take G33U U41A: the self-cleavage stood at 0.18.

Consider A20U A65C, for which the self-cleavage turned out to be 0.1.

For the variant A18G U74G, the self-cleavage is 1.21.

As to A20C U66C, the self-cleavage turned out to be 0.23.

In the case of A13U G33A, the self-cleavage amounted to 0.21.

Regarding C27A A77U, the self-cleavage was determined as 0.14.

In the case of A13G G22C, the self-cleavage amounted to 0.12.

Turning to U66C U72G, the self-cleavage was 0.46.

As to A45U U67C, the self-cleavage amounted to 0.27.

As for A13C A57G, the self-cleavage came to 1.04.

A3U A20U: the self-cleavage is 0.45.

C4U U48C: the self-cleavage was 0.99.

On to A5C C17A, for which the self-cleavage is 0.19.

In the case of A20U C23U, the self-cleavage amounted to 0.4.

Regarding G33A U66A, the self-cleavage came to 0.18.

For the variant A35G U41C, the self-cleavage came to 1.23.

Take A2U C62U: the self-cleavage was 0.31.

For G30A U76C, the self-cleavage was determined as 0.26.

As to A5C U67C, the self-cleavage stood at 0.22.

With U31A U51C, the self-cleavage is 0.46.

For U1C G8A, the self-cleavage came to 0.34.

On to A2C A15G, for which the self-cleavage was found to be 0.69.

Take G30A U48C: the self-cleavage stood at 0.27.

Consider A45G A47G, for which the self-cleavage was 0.46.

With U72A U80G, the self-cleavage is 0.99.

On to C29U U49A, for which the self-cleavage is 0.16.

Turning to A15U C39U, the self-cleavage was 0.65.

Consider A28C U58G, for which the self-cleavage came to 0.2.

Regarding G16U C23U, the self-cleavage came to 0.16.

Turning to C17A A65U, the self-cleavage amounted to 0.15.

On to C4U U80C, for which the self-cleavage worked out at 1.19.

Regarding A15G U67A, the self-cleavage amounted to 0.35.

For A47G U54A, the self-cleavage was found to be 1.08.

For A45G U60G, the self-cleavage was 0.25.

Turning to A20G A35G, the self-cleavage turned out to be 1.25.

For A35U U80A, the self-cleavage is 0.58.

For the variant A2U C23U, the self-cleavage worked out at 0.35.

G16A C39A: the self-cleavage came to 0.33.

On to A56C U60C, for which the self-cleavage was determined as 0.18.

As to A45U A47G, the self-cleavage stood at 0.36.

For C27U C38U, the self-cleavage is 0.32.

Regarding G8U U25C, the self-cleavage was 0.12.

Regarding A5C G8A, the self-cleavage was 0.46.

Consider A2G A28C, for which the self-cleavage was found to be 0.38.

On to C29U U58C, for which the self-cleavage stood at 0.46.

With A3U C59A, the self-cleavage came to 0.51.

For the variant A5U U43C, the self-cleavage is 0.76.

A5G G33C: the self-cleavage stood at 0.38.

On to A47G U72G, for which the self-cleavage turned out to be 0.35.

On to A13G U41C, for which the self-cleavage came out at 0.79.

Turning to A2G U80G, the self-cleavage was 0.17.

Take A21G A56C: the self-cleavage stood at 0.36.

With A18G G52A, the self-cleavage amounted to 0.82.

With C39G A47G, the self-cleavage amounted to 0.13.

Turning to U41A G55U, the self-cleavage was 0.2.

Consider C11U A56G, for which the self-cleavage was found to be 0.32.

On to U67A U78A, for which the self-cleavage came out at 0.64.

Regarding A18C A20U, the self-cleavage was 0.15.

Regarding U60G A64U, the self-cleavage amounted to 0.21.

Turning to A28C U74A, the self-cleavage amounted to 0.9.

Take U31C C40A: the self-cleavage was found to be 0.2.

Take G16U G24A: the self-cleavage was determined as 0.19.

As for G36A U76C, the self-cleavage is 0.28.

A15G C40G: the self-cleavage was 0.28.

In the case of A64G C79A, the self-cleavage was 0.84.

With G73U, the self-cleavage came out at 1.28.

As to C27U A65U, the self-cleavage came to 0.14.

On to G24U C38U, for which the self-cleavage was determined as 0.1.

Regarding A2G C39A, the self-cleavage was 0.09.

As to U25A U74A, the self-cleavage was 0.25.

Turning to G7U U41C, the self-cleavage is 0.21.

On to G19U U78C, for which the self-cleavage turned out to be 0.32.

Regarding A20G C38U, the self-cleavage came to 0.37.

C17A U43C: the self-cleavage was determined as 0.32.

Regarding U60C A65G, the self-cleavage amounted to 0.28.

U25C U80A: the self-cleavage was 0.28.

As to A18G C39A, the self-cleavage was 0.47.

Regarding U72C U76C, the self-cleavage is 1.16.

In the case of G9U A65G, the self-cleavage worked out at 0.17.

On to C44G U74A, for which the self-cleavage stood at 1.18.

For A65G U80A, the self-cleavage came out at 0.53.

Consider A3G U48A, for which the self-cleavage was determined as 0.37.

On to A18C C34U, for which the self-cleavage was 0.22.

For the variant A28C U48A, the self-cleavage worked out at 0.37.

For G36U U80C, the self-cleavage was 0.46.

Turning to U25A C34U, the self-cleavage stood at 0.56.

With A56G A75C, the self-cleavage stood at 1.12.

Regarding G24U U41A, the self-cleavage stood at 0.23.

As to G22C U41A, the self-cleavage came out at 0.29.

In the case of A47U U74C, the self-cleavage came to 1.14.

Regarding C37U U80A, the self-cleavage came out at 0.99.

In the case of C12U C29U, the self-cleavage was found to be 0.96.

As to A15G U54G, the self-cleavage came out at 0.96.

Take C14U U74G: the self-cleavage turned out to be 1.27.

For the variant A28G G52C, the self-cleavage was found to be 0.42.

For G9U G55A, the self-cleavage was 0.41.

For C68U A75U, the self-cleavage came to 1.02.

In the case of C39U C79U, the self-cleavage was found to be 1.02.

Regarding U54A C81U, the self-cleavage came to 1.2.

As to C27U G33U, the self-cleavage was found to be 0.34.

On to G9A G33A, for which the self-cleavage came to 0.08.

For G19A A57G, the self-cleavage was determined as 0.26.

As for A15U A20G, the self-cleavage is 0.41.

In the case of G6A U51A, the self-cleavage is 0.37.

For the variant C39U A45G, the self-cleavage was 0.69.

Consider G19U U51C, for which the self-cleavage was 0.22.

With G7U G36C, the self-cleavage came out at 0.14.

Consider U41C C79U, for which the self-cleavage was 1.26.

A20U U67G: the self-cleavage was determined as 0.44.
